Assay results as given in PMC5241105 (Science (New York, N.Y.), 2016).

B1: Fab114 (antigen-binding fragment of mAb114) (Fab, V domains shown)
VH: EVQLVESGGGLIQPGGSLRLSCAASGFALRMYDMHWVRQTIDKRLEWVSAVGPSGDTYYADSVKGRFAVSRENAKNSLSLQMNSLTAGDTAIYYCVRSDRGVAGLFDSWGQGILVTVSS
VL: DIQMTQSPSSLSASVGDRITITCRASQAFDNYVAWYQQRPGKVPKLLISAASALHAGVPSRFSGSGSGTHFTLTISSLQPEDVATYYCQNYNSAPLTFGGGTKVEIK
B2: Fab100 (antigen-binding fragment of mAb100) (Fab, V domains shown)
VH: QVQLQESGPGLVKPSDTLSLTCTVSGGSLSSFYWSWIRQPPGKGLEWIGYIYYSGSPNYSPSLESRVTMSVDTTRNQISLKLDSVTAADTAVYYCVRASRSYYWGSYRPTAFDSWGQGTLVTVSS
VL: YELTQPLSVSVSPGQTAIFTCSGDNLGDKYVCWFQQRPGQSPMLLIYQDNKRPSGIPERFSGSNSGNTATLTISGTQSTDEADYYCQTWDSTVVFGGGTKLTVL

Target: thermolysin cleaved Ebola virus GP (GPTHL) (Ebola virus (EBOV), UniProt Q05320)
Test: BLI

Binder	Kd [nM]	binding result
B1	8	
B2		binds
